Reference: patent US20080274134A1

Each substance was assayed against Protein G on µMACS Protein G microbeads (Group G Streptococci) (UniProt P06654) (assay: immobilisation on µMACS Protein G microbeads).
Sequence of UniProt P06654 (P06654 228-352): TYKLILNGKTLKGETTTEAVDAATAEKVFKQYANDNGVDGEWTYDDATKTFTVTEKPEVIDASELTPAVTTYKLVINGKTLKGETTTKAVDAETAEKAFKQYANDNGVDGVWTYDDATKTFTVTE

| capacity of the microbeads (µg per ml of microbead suspension) | Substance |
| --- | --- |
| 60 | human monoclonal antibody 2G12 |
| 55 | human monoclonal antibody IgG1b12 |
| 95 | human monoclonal antibody 2F5 |
